Assay [1] addresses T1, human PDGF-BB (human, UniProt P01127 82-190).
T1 construct: Bought recombinant protein (Cell Signaling 8921BF or R&D Systems 220-BB); also called huPDGF-BB; recombinant human PDGF-BB
Nature of the assay: SPR, apparent KD (avidity), IgG on immobilized human PDGF-BB (Example 17). How it is done: (§1) The binding analysis was carried out using a surface plasmon resonance spectroscopy-based technology applying a BIAcore B4000 system (GE Healthcare). The antigen human PDGF-BB (Cell Signaling, Cat. No. 8921BF) was immobilized at a concentration of 1 μg/mL in PBS, 0.1% BSA, 0.05 Tween using amine coupling chemistry on a C1 sensor chip (GE Healthcare, Cat. No. BR-1005-35). Anti-PDGF-BB antibody in increasing concentrations was applied in 10 mM HEPES pH 7.2, 150 mM NaCl. Utilizing a read out time of 180 sec. association phase and 600 sec. dissociation phase the apparent kₐ and apparent kd were calculated. The apparent KD (avidity) was calculated using the BIAcore T200 v2.0 fitting software.
In general terms: SPR reads the build-up and loss of mass on a sensor chip optically.

In assay [2] the target is T1, human PDGF-BB. Nature of the assay: inhibition ELISA: biotinylated huPDGF-BB binding to immobilized Fc-tagged huPDGF-Rβ (Example 15). The protocol: The protein-protein interaction inhibition analysis of human PDGF-BB to the human PDGF-BB receptor was carried out using an enzyme-linked immunosorbent assay (ELISA)-based technology. The human Fc-tagged PDGF-BB receptor protein (RnD, Cat. No. 385-PR-100) was immobilized at a concentration of […] in 25 μL in PBS, 0.5% BSA and 0.05% Tween on a 384 well microtiter plate (Thermo Scientific Cat. No. 464718). Every of the following steps was followed by a washing routine of 3 times 90 μL PBS with dispense and aspiration: 1) blocking step saturating unbound surface (1 hour, 2% BSA); 2) 15 μL anti-PDGF-BB antibody in increasing concentrations was incubated with 15 μL biotinylated human PDGF-BB (Cell Signaling, Cat. No. 8921BF) at 75 nM in a volume of 30 μL for 1 hour; 3) detection was achieved using peroxidase-labeled streptavidin (Roche Diagnostics GmbH, Mannheim, Germany, Cat. No. 11089153001). 20-30 min. after adding the substrate 3,3′,5,5′-tetramethylbenzidine (TMB, Piercenet, Cat. No. 34021) the optical density was determined at 370 nm. The IC₅₀ was calculated with a four parameter logistic model using GraphPad Prism 6.0 software.

In assay [3] the target is T2, cynomolgus PDGF-BB (cynomolgus, UniProt A0A2K5UX81 82-190, Disulfide-linked homodimer of two identical B chains; one copy is given.).
T2 construct: also called cynPDGF-BB
Nature of the assay: SPR, apparent KD (avidity), IgG on immobilized cynomolgus PDGF-BB (Example 18). The protocol:
as §1, with “cynomolgus” for “human”, “PDGF-BB” for “PDGF-BB (Cell Signaling, Cat. No. 8921BF)”, “0.05%” for “0.05”

Assay [4] has as its target T1, human PDGF-BB. Nature of the assay: SPR, IgG.
The target of assay [5] is T1, human PDGF-BB. The assay is described as follows: SPR, IgG on immobilized human PDGF-BB (Example 17). The protocol: as §1
The target of assay [6] is T1, human PDGF-BB. Nature of the assay: cell-based or functional assay.

Bounds are passed on as bounds.

T1 sequence (P01127 82-190 limits assumed): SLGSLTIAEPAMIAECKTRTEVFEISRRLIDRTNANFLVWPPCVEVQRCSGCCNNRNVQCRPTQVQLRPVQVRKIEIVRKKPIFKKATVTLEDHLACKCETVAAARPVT
T2 sequence (A0A2K5UX81 entry or part of it limits assumed): as the sequence (P01127 82-190 limits assumed) above, with I7V counted along it

B1: antibody 0058 (antibody, V domains shown)
VH: EVQLVESGGGLVQPGGSLRLSCAASGFTFSSFWMTWVRQAPGKGLEWVASISAGGGITHYPDSVKDRFTVSRDNAKNSLYLQLNSLRAEDTAVYYCAESGGDIYSDFDYWGQGTLVTVSS
VL: not shown
notes: Human antibody from a human Ig locus transgenic rabbit; IgG
Consider B1, for which the Kd in assay [1] was 0.062 nM. Besides, the IC50 (in general, the point on the concentration scale where inhibition reaches its midpoint) in assay [2] was determined as 0.0425 µg/mL. In addition, the Kd in assay [3] was 0.0288 nM. This molecule registered a T½ in assay [4] of 1.42 h. Moreover, in assay [5], the koff (as a rule, the first-order rate constant of dissociation) came to 0.00011 s⁻¹ and the on-rate (kon) – broadly, the rate constant with which the complex forms – is 1.8e+06 M⁻¹ s⁻¹. In addition, in assay [6], the “Balb-C3T3 Proliferation % neutralization” value came out at 100%, the “Balb-C3T3 Proliferation IC50” value turned out to be 0.24 nM, the “Pericytes Migration % neutralization” value stood at 100% and the “Pericytes Migration IC50” value stood at 0.002 nM. For the same molecule, in assay [6], the “Pericytes Proliferation % neutralization” value worked out at 100% and the “Pericytes Proliferation IC50” value came out at 0.08 nM.

B2: antibody 0064 (antibody, V domains shown)
VH: EVQLVESGGGLVQPGGSLRLSCAASGFTFSSYWMSWVRQAPGKGLEWVSTISDGGGTTSYADSVKGRFTISRDNSKNTLYLQMNSLRAEDTAVYSCAESGGATDYLFDYWGQGTLVTVSS
VL: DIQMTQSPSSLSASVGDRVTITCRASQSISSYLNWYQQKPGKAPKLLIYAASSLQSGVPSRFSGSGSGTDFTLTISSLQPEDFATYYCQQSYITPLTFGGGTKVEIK
notes: as for B1
For the molecule B2, the Kd in assay [1] is 0.0769 nM. The molecule further yielded an IC50 in assay [2] of 0.0343 µg/mL. Also, the Kd in assay [3] amounted to 0.0596 nM. Moreover, the T½ in assay [4] came to 1.9 h. In assay [5], this molecule returned a koff of 5.5e-05 s⁻¹ and a kon of 720000 M⁻¹ s⁻¹. Also, in assay [6], the “Balb-C3T3 Proliferation % neutralization” value turned out to be 100%, the “Balb-C3T3 Proliferation IC50” value worked out at 0.024 nM, the “Pericytes Migration % neutralization” value was found to be 100% and the “Pericytes Migration IC50” value is 0.14 nM. Besides, in assay [6], the “Pericytes Proliferation % neutralization” value was 100% and the “Pericytes Proliferation IC50” value turned out to be 0.08 nM.

B3: antibody 0060 (antibody, V domains shown)
VH: EVQLLESGGDLVQPGGSLRLSCAASGFTFRSYAMSWVRQAPGKGLEWVSGISAGGGYIYYADSVTGRFTSSRDNYKNTLYLQMNRLRVEDTAVYYCARFYPGYNSDTYYYDGMDVWGQGTTVTVSS
VL: not shown
notes: as for B1
Take B3: in assay [1], the Kd amounted to 0.0782 nM. Moreover, the IC50 in assay [2] amounted to 0.0554 µg/mL. Also, in assay [3], the Kd is less than 0.0303 nM. Moreover, the T½ in assay [4] came out at 1.9 h. Besides, in assay [5], the koff is 2.9e-05 s⁻¹ and the kon is 370000 M⁻¹ s⁻¹. In assay [6], the “Balb-C3T3 Proliferation % neutralization” value worked out at 90%, the “Balb-C3T3 Proliferation IC50” value was 0.29 nM, the “Pericytes Migration % neutralization” value came to 100% and the “Pericytes Migration IC50” value came out at 0.013 nM. Besides, in assay [6], the “Pericytes Proliferation % neutralization” value was 100% and the “Pericytes Proliferation IC50” value is 0.6 nM.

Values taken from US20170247440A1 (Hoffmann-La Roche, published 2017).
